This data set can be described thus: amyloid nucleation score (Sup35N fusion, yeast selection) (log enrichment); library NNK3; higher = more nucleation; inactive = no reads after selection. Put shortly:
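Nucleation score: DiMSum log enrichment of output over input reads, centred on the mode score of non-aggregating sequences. Only sequences with at least 100 input reads were kept. Reads came from Illumina sequencing of plasmid inserts before and after 7 days of growth at 30°C without adenine and uracil, in psi-negative yeast expressing Sup35N fused to peptides of 20 random codons after 24 hours of induction with 100 μM copper sulfate.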

± gives the uncertainty stated by the source.

In the case of IAGFRNGSPANNAVGKPG, the amyloid nucleation score entry is “inactive”.
With HIWTIRVMFWRELRLLITPI the entry was “inactive”.
In the case of VNLEDGSGDSCKDNCNGERF, the amyloid nucleation score was -0.821 ± 0.84.
Regarding GGLRNNPKRVIRDEDVQVHM, the amyloid nucleation score entry is “inactive”.
With STVVNSYMNFCACKGSNMAC the figure was 2.7 ± 0.068; with AYRSKLKLCSYWIMGCVHPL, “inactive”.
With VLEYHTQPWGLAQRQTWLSG, the amyloid nucleation score result is “inactive”.
On to GLALGWHFTC, for which the amyloid nucleation score entry was “inactive”.
With LVCMEISSNFLATVCVEWIG the entry was “inactive”; with KIMNSKNVLRHFSLGQWLHG, “inactive”.
FYFDARRSITLSNSNVVKLW had an amyloid nucleation score of 1.93 ± 0.08.
Then SGFLYCNLSKSSCYAFQAGG, with “inactive”; and TFLLCVVDGCCICRRGSCAS, with 2.2 ± 0.096; and LYFSNRTIKEYIVN, with “inactive”.
Then QQLRNWFHLDPTLARKPKFL, with “inactive”; and ALTAYLVNVWSKYTGMLFSC, with “inactive”; and PLCVWVWKLRVVFRRLYFEF, with “inactive”.
With HKCMCVY the entry was “inactive”; with FNTPDRAPLLATCAVHANLH, “inactive”.
As to QFSVCCCRHLPLYMTKAVIA, the amyloid nucleation score result is “inactive”.
With RSLYWIWWDDSKSNE the entry was “inactive”.
With VMRALL the entry was “inactive”; with ASARRCVSVVLIHTAKIHRN, “inactive”; with CSNWLWWYYYVRMYRSVRFS, -0.368 ± 0.64.
With NKFMIGVRMASGTL the entry was “inactive”; with WSMCKLKDFFTGRGVYRFIS, “inactive”; with LASNFVGASIPPRRACGCRA, “inactive”.
With CDGPMSYMGLGTAGKR, the amyloid nucleation score entry was “inactive”.
With FLYWVGSFEAEPV the entry was “inactive”; with CKSDFCISNVLWLYGLKFQR, “inactive”.
Then RFCRSSWMYPVEGQVGHIRE, with “inactive”; and WLHTCRGSMDW, with “inactive”.
With INWYIHFRPLWQGFR the entry was “inactive”; with LMLDFSIGRSPGDNAVICRH, “inactive”.
For the substance LDVVRRMLKTH, the amyloid nucleation score result is “inactive”.
Turning to EKITFGECWKACSAF, the amyloid nucleation score entry was “inactive”.
Then VGHSNNQFSGFEMCHDNTLL, with “inactive”; and VGSLVHLGLGWIRTLLLYGV, with “inactive”.
As to FKLHCSDRYECTKDLSHLWC, the amyloid nucleation score entry is “inactive”.
For PSSFKMY, the amyloid nucleation score result was “inactive”.
With LCHVVSDMVLSIQHYHACLS the entry was “inactive”; with SFPWFDTYSLDVSWHISWRS, “inactive”.
With GVLYDGVGDNHCCGSRKLVL the entry was “inactive”; with MNKNIRGYDLFKMRMMDWCM, “inactive”.
Then AAETLTRSWLLRSARLMKDG, with -0.233 ± 1.4; and IMYLRETGTK, with “inactive”; and WACIQK, with “inactive”.
As to CRMDGIKGSEIRNADAWAIY, the amyloid nucleation score result is “inactive”.
As for RNCNETLNIVETGNSISANV, the amyloid nucleation score result is “inactive”.
Then NWGVVYYISSCNGNSSHLSS, with 1.83 ± 0.097; and RSNVVAQMYQKMLLSRYCTI, with 0.354 ± 0.27; and LNGRYSLLWR, with “inactive”.
Turning to VEHDNKGISQAAVMFG, the amyloid nucleation score entry was “inactive”.
With PRRMHMGHAVFDIMGTLRSK the figure was 0.9 ± 0.15; with MIPCLHEFLYLNSWDNKVGL, “inactive”.
For the substance MKAYILMVDRLVVELVPHVA, the amyloid nucleation score is -0.107 ± 0.35.
Then QNFRFYLTCVSGSGHYRSYT, with 1.37 ± 0.093; and NSSNVFVLIVCMYWKFSYSC, with “inactive”.
Then YYWDKLFCMYKTAHGVSIYV, with “inactive”; and QNFRIYTVSLLNNRYDELIS, with “inactive”; and INLTYRVTVRVQISAPGMCA, with -0.206 ± 0.65.
Regarding IAHWAWGMELIIYQIPNHFR, the amyloid nucleation score is 0.407 ± 0.25.
With FWFYATLMGEQDK the figure was -0.331 ± 0.9; with GIKNMRSISKFGWVFLIYTV, “inactive”.
On to GSGIINDMGFRWIFFMWVMA, for which the amyloid nucleation score entry was “inactive”.
Then PYARRMWHGVLVRDIGLYTR, with “inactive”.
With PFRFVKNLCGATG the entry was “inactive”; with CAFPVDGRGTIVVFRHVLEG, “inactive”.
Consider TISIVTWDIVRSKCMRRKVL, for which the amyloid nucleation score entry was “inactive”.
With RGWDVWAVHSEFYCLKKLIV the entry was “inactive”; with GIVILLNYHPIRLF, 2.2 ± 0.068.
With THEHMRHC the entry was “inactive”; with ALCGNHLKCYKYSGAWRAV, “inactive”; with CLRDCKTPDSATHTRAINGL, “inactive”.
Then TFSNNYPFSRWGCFSVLAV, with “inactive”.
Consider KYRVGMSSWFNLAHYGNLCG, for which the amyloid nucleation score was 0.228 ± 0.25.
Then VWNFFSMGSFSVDC, with 1.28 ± 0.087; and YTFIIGIKHSTSSFNMSFSM, with 0.613 ± 0.25.
MFWEGVTNSEMATKLHDKCI: the amyloid nucleation score result was “inactive”.
Then SRVLILM, with “inactive”; and VRTRWFIAPVCVARGSLCLV, with “inactive”; and TAWGMLGGPE, with “inactive”.
Then GWSDRFSMLYSFLLLLWKSP, with “inactive”; and ISALKQSS, with “inactive”.
With ALASGVVVKLDICIVNNRMY the figure was 3.11 ± 0.073; with SSGLICF, “inactive”; with CIFFWSALARLFFGLFNYPC, “inactive”.
Consider VVVLYFVSHWTNRMSYSTRL, for which the amyloid nucleation score entry was “inactive”.
With TNVTANGVKPHPYPMRSPAT the entry was “inactive”; with NDLSGKTCNGRRVEDRAPMA, -0.114 ± 0.44; with SSYLMFDMLMRYYLNYFMCR, “inactive”.
With GALSYKSKSWRS the entry was “inactive”; with CCMVYGGYMM, “inactive”.
With SLTVKFSLLKGESQVDHFVS the figure was -0.158 ± 0.85; with LTKYVVFSIY, 1.16 ± 0.094.
In the case of APAEIFDLLKSMNGTLCRMG, the amyloid nucleation score entry was “inactive”.
Take THPVSCRYVSPDMSSAHYFV: the amyloid nucleation score entry was “inactive”.
With LPYLKQ the entry was “inactive”.
Then TGILRNFSCFSFWFWVIRIT, with 1.46 ± 0.097; and YYHLGLLDVSINEIRT, with “inactive”.
Turning to VHIYSCYTRALDGNGAHSNN, the amyloid nucleation score entry is “inactive”.
As for LSWRRCA, the amyloid nucleation score entry was “inactive”.
Then LSLLVTLG, with “inactive”.
With RHRLAHMRNKWRGQVHCPKG the entry was “inactive”; with CSIARLFWFFPVMPSCIG, -0.236 ± 1.1.
With YWGIDHRIAGYIC, the amyloid nucleation score entry is “inactive”.
With SSLPRPLVFRSLFVWREYIQ the figure was -0.06 ± 0.77; with SNKECLLGIGWFASYKVIPT, “inactive”; with VCSLVLWSLSSWWTRYGTLR, “inactive”.
Then CLRMGYVLRSRWERLDCLKW, with “inactive”; and NRSSKWVISYRATICLLPMD, with “inactive”; and DAWDDNYNASRIGFAYMYSI, with “inactive”.
With YWFIAQAYKGRCVGSTVDKR the entry was “inactive”; with RRFKYIGLRGTMHRLNYFGL, “inactive”.
QINWTGHLSMSFICFLNSRV: the amyloid nucleation score result is “inactive”.
With RFGALVTLVFVCYHWNRPTA the figure was 0.753 ± 0.16; with YTCNST, “inactive”; with LILSSCVKGPVSCRPM, “inactive”.
Then LYFNVSTTIAIRIRSYSYRV, with -0.299 ± 0.62; and YPKACVI, with “inactive”.
With VNWRVRWIYSILGKS the entry was “inactive”; with LKIWLRSYPYPLTGQKQRPK, “inactive”.
In the case of NWFSSQS, the amyloid nucleation score result was “inactive”.
With DRCGVFNTPYLVNSELILC the entry was “inactive”; with QNILLNVIVTRFGSLQWRSE, 1.83 ± 0.056; with AWGSVYVALVWRWNFRCVR, “inactive”.
Regarding MKIGETYDLTSINPAAWNVR, the amyloid nucleation score result was “inactive”.
With ICAVFWDCMISRSCDTALYS the entry was “inactive”; with NKDWREVCSKLNLGSCPTPE, “inactive”.

The values are drawn from the supplement of paper PMC12042874.
